Experimental data: article PMC11297322, “MEILB2-BRME1 forms a V-shaped DNA clamp upon BRCA2-binding in meiotic recombination” (Nature Communications, 2023)
Residue numbers refer to the chain shown, from its start. Names and notes keep the numbering of the source.

B1: MEILB2α (mouse MEILB2 amino-acids 22–81) (domain or fragment, UniProt Q9D4G2 22-81, looked up)
chain: EEFVKVRKKDLERLTTEVMQIRDFLPRILNGELLESFQKLKMVEKNLERKEQELEQLIMD
notes: MEILB2 (meiotic localiser of BRCA2; HSF2BP), mouse, residues 22-81: the α1 helix and the beginning of the α2 helix; Two copies stand in the 2:2 core complex with BRME1; also called HSF2BP; source: E. coli BL21 (DE3), purified with BRME1 (Ni-NTA, amylose, ion exchange, TEV cleavage, SEC); not shown: His6-MBP (pMAT11) or MBP (pRSF-Duet1), N-terminal, cleaved
B2: BRCA2MBD (mouse BRCA2 amino-acids 2232–2283, MEILB2-binding domain) (domain or fragment, UniProt P97929 2232-2283, looked up)
chain: PIKRSLLNEFDRIIESKGKSLTPSKSTPDGTVKDRSLFTHHMSLEPVTCGPF
notes: source: E. coli BL21 (DE3), purified in complex with MEILB2 (Ni-NTA, amylose, ion exchange, TEV cleavage, SEC); not shown: His6-MBP (pMAT11) or MBP (pRSF-Duet1), N-terminal, cleaved
B3: MBP-BRCA2MBD (mouse BRCA2 2232–2283 with N-terminal MBP-tag) (domain or fragment, UniProt P97929 2232-2283, looked up)
chain: B2 chain
notes: also called BRCA2MBD with N-terminal MBP-tag; source: E. coli BL21 (DE3), purified in complex; not shown: MBP, N-terminal, kept
B4: BRME1MBD (mouse BRME1 amino-acids 540–578) (domain or fragment, UniProt Q6DIA7 540-578, looked up)
chain: RMQDATDTVRGLVVELSGLNRLIMSTHRDLEAFKRRKTK
notes: source: E. coli BL21 (DE3), purified in complex with MEILB2 (Ni-NTA, amylose, ion exchange, TEV cleavage, SEC); not shown: His6, N-terminal, cleaved
B5: MBP-MEILB2 (mouse MEILB2 22–338 with N-terminal MBP-tag) (domain or fragment, UniProt Q9D4G2 22-338, looked up)
chain: EEFVKVRKKDLERLTTEVMQIRDFLPRILNGELLESFQKLKMVEKNLERKEQELEQLIMDREHFKARLETAQADSGREKKEKLALRQQLNEAKQQLLQQAEYCTQMGAVTCTLLWGVSSSEEVVKTILGGDKALKFFNITGQTMESFVKSLDGDVKEVDSDENQFVFALAGIVTNVAAIACGREFLVNSSRVLLDTMLQLLGDLKPGQCTKLKVLMLMSLYNVSINSKGLKYITESPGFIPLLWWLLSDPDAEVCLHTLRLIQSVVLEPDVFSKVASELQSSLPLQRILAMSKSRNSHLQSAAQELLEDLRALDCNV
notes: MEILB2 (HSF2BP), mouse, residues 22-338; also called MEILB2 with N-terminal MBP-tag; source: E. coli BL21 (DE3), purified in complex; not shown: MBP, N-terminal, kept
B6: MEILB2 (mouse MEILB2 amino-acids 22–338, the full structured region) (domain or fragment, UniProt Q9D4G2 22-338, looked up)
chain: B5 chain
notes: MEILB2 (HSF2BP), mouse, residues 22-338: α-helical region (α1, α2) and C-terminal ARM domain; the N-terminal 21 residues removed; also called HSF2BP; source: E. coli BL21 (DE3), purified in complex (Ni-NTA, amylose, ion exchange, TEV cleavage, SEC); not shown: His6-MBP (pMAT11) or MBP (pRSF-Duet1), N-terminal, cleaved
B7: MEILB2 K26E (mouse MEILB2 22–338) (domain or fragment, UniProt Q9D4G2 22-338, looked up)
chain: B5 chain with K5E
notes: MEILB2 (HSF2BP), mouse, residues 22-338 with K26E; source: E. coli BL21 (DE3), purified in complex (Ni-NTA, amylose, ion exchange, TEV cleavage, SEC); not shown: His6-MBP (pMAT11) or MBP (pRSF-Duet1), N-terminal, cleaved
B8: BRME1MBD ΔRKTK (mouse BRME1 amino-acids 540–574) (domain or fragment, UniProt Q6DIA7 540-574, looked up)
chain: RMQDATDTVRGLVVELSGLNRLIMSTHRDLEAFKR
notes: BRME1 (BRCA2 and MEILB2-associating protein 1); The crystallography methods give 540–574 for the crystallised BRME1 chain, the results give 540–578; also called BRME1 540–574; BRME1MBD (in the crystallography methods); source: E. coli BL21 (DE3), purified with MEILB2 (Ni-NTA, amylose, ion exchange, TEV cleavage, SEC); not shown: His6, N-terminal, cleaved

Key:
[1] = molecular target: the molecule itself; experiment: crystal structure; MEILB2α–BRME1MBD (22–81; 540–574) 2:2 core complex; crystals grown on ice in 20 mM HEPES pH 7.5, 150 mM KCl; 1.50 Å; one 2:2 complex in the asymmetric unit
[2] = molecular target: B7; experiment: not stated; BRCA2MBD–MEILB2–BRME1MBD complex with MEILB2 K26E; data in Supplementary Figs. 2 and 12c; conditions: both partners purified
[3] = molecular target: B6; experiment: not stated; BRCA2MBD–MEILB2 in the absence of BRME1MBD, in solution; data in Supplementary Fig. 14; conditions: both partners purified
[4] = molecular target: B6; experiment: SEC-MALS; BRCA2MBD–MEILB2–BRME1MBD ternary complex at >5 mg/ml, Superdex 200 Increase 10/300 GL, 20 mM HEPES pH 7.5, 500 mM KCl, 2 mM DTT; conditions: both partners purified
[5] = molecular target: B5; experiment: as above; conditions: both partners purified
[6] = molecular target: B6; experiment: SEC-MALS; MEILB2–BRME1MBD complex at >5 mg/ml, Superdex 200 Increase 10/300 GL, 20 mM HEPES pH 7.5, 150 mM KCl, 2 mM DTT; conditions: both partners purified
[7] = molecular target: the molecule itself; experiment: SEC-MALS; BRCA2MBD–MEILB2–BRME1MBD ternary complex at >5 mg/ml, Superdex 200 Increase 10/300 GL, 20 mM HEPES pH 7.5, 500 mM KCl, 2 mM DTT
[8] = molecular target: the molecule itself; experiment: not stated; BRCA2MBD–MEILB2 in the absence of BRME1MBD, in solution; data in Supplementary Fig. 14
[9] = molecular target: the molecule itself; experiment: SEC-MALS; MEILB2–BRME1MBD complex at >5 mg/ml, Superdex 200 Increase 10/300 GL, 20 mM HEPES pH 7.5, 150 mM KCl, 2 mM DTT
[10] = molecular target: the molecule itself; experiment: not stated; BRCA2MBD–MEILB2–BRME1MBD complex with MEILB2 K26E; data in Supplementary Figs. 2 and 12c
[11] = molecular target: B1; experiment: crystal structure; MEILB2α–BRME1MBD (22–81; 540–574) 2:2 core complex; crystals grown on ice in 20 mM HEPES pH 7.5, 150 mM KCl; 1.50 Å; one 2:2 complex in the asymmetric unit; conditions: both partners purified

Binder: B1
binding result [1]: binds

Binder: B2
stoichiometry N [2]: 0.5 BRCA2MBD per MEILB2 (2:4 in the 2:4:4 complex)
stoichiometry N [3]: 0.5 BRCA2MBD per MEILB2 (4:8)
stoichiometry N [4]: 0.5 BRCA2MBD per MEILB2 (2:4 in the 2:4:4 complex)

Binder: B3
stoichiometry N [5]: 0.5 BRCA2MBD per MEILB2 (2:4 in the 2:4:4 complex)

Binder: B4
stoichiometry N [2]: 1 BRME1MBD per MEILB2 (4:4 in the 2:4:4 complex)
stoichiometry N [5]: 1 BRME1MBD per MEILB2 (4:4 in the 2:4:4 complex)
stoichiometry N [4]: 1 BRME1MBD per MEILB2 (4:4 in the 2:4:4 complex)
stoichiometry N [6]: 1 BRME1MBD per MEILB2 (2:2)

Binder: B5
stoichiometry N [7]: 4 MEILB2 chains in the 2:4:4 complex (with BRCA2MBD)

Binder: B6
stoichiometry N [8]: 8 MEILB2 chains in the 4:8 oligomer (with BRCA2MBD)
stoichiometry N [7]: 4 MEILB2 chains in the 2:4:4 complex (with BRCA2MBD)
stoichiometry N [9]: 2 MEILB2 chains in the 2:2 complex

Binder: B7
stoichiometry N [10]: 4 MEILB2 chains in the 2:4:4 complex (with BRCA2MBD)

Binder: B8
binding result [11]: binds
